Measurements from PMC11423790, “Structural Insights into the Diversity and DNA Cleavage Mechanism of Fanzor”.

Assays:
Details in all cases: protein: recombinant; tags: 10xHis-MBP N-terminal; blunt DNA 54 bp; R-loop
[1] = biological target: T1, SpuFz1 (Spizellomyces punctatus ATCC 48900, UniProt A0A0L0H5U9 1-622); experiment: cryo-EM structure; State I, 8-bp heteroduplex; RNP purification buffer 20 mM HEPES pH 7.5, 150 mM NaCl, 2 mM MgCl2, 4.5 mM TCEP, 4 C; ternary complex assembly conditions not in the material
[2] = biological target: T1, SpuFz1; experiment: cryo-EM structure; State IV, dsDNA unwound on RuvC; RNP purification buffer 20 mM HEPES pH 7.5, 150 mM NaCl, 2 mM MgCl2, 4.5 mM TCEP, 4 C; ternary complex assembly conditions not in the material
[3] = biological target: T1, SpuFz1; experiment: cryo-EM structure; State V, 15-bp heteroduplex, lid down; RNP purification buffer 20 mM HEPES pH 7.5, 150 mM NaCl, 2 mM MgCl2, 4.5 mM TCEP, 4 C; ternary complex assembly conditions not in the material
[4] = biological target: T1, SpuFz1; experiment: cryo-EM structure; State VI, 15-bp heteroduplex, weak lid density; RNP purification buffer 20 mM HEPES pH 7.5, 150 mM NaCl, 2 mM MgCl2, 4.5 mM TCEP, 4 C; ternary complex assembly conditions not in the material

T1 sequence (A0A0L0H5U9 entry or part of it): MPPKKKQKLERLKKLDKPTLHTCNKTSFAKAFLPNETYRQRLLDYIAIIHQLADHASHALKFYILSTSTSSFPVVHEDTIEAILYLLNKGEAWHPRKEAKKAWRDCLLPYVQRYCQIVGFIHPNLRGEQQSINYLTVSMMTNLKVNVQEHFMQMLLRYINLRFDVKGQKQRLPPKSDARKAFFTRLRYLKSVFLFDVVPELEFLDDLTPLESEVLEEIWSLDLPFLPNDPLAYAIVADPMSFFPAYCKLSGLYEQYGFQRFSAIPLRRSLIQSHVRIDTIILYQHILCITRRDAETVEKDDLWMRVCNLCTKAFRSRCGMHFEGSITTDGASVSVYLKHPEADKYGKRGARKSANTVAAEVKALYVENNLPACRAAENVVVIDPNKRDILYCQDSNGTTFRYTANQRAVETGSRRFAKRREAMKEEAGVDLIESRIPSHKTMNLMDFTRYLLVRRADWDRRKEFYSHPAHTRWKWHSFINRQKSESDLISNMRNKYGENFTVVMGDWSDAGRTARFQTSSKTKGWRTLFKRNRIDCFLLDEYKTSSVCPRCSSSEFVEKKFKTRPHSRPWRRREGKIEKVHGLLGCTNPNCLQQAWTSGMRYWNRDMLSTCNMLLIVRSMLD

B1: SpuFz1 omegaRNA + ds2 (mixed)
RNA: GUUUUCCGAGCCGGUUGUCGCGCGGUUCAAUCCCUGGUGCGGGUGCUAGUGCCAAUACCCACCGGCUCCGCACUAUCUAUAGGUUAUGA
DNA 1: ATTCGAGCTCGGTACCCGGGCATATCTATAGGTTATGAAATCAAATTACAAATA
DNA 2: TATTTGTAATTTGATTTCATAACCTATAGATATGCCCGGGTACCGAGCTCGAAT
modifications: phosphorothioates, TS partially modified, NTS unmodified
- binding result [1]: binds

B2: SpuFz1 omegaRNA + ds3 (mixed)
RNA: GUUUUCCGAGCCGGUUGUCGCGCGGUUCAAUCCCUGGUGCGGGUGCUAGUGCCAAUACCCACCGGCUCCGCACUAUCUAUAGGUUAUGA
DNA 1: ATTCGAGCTCGGTACCCGGGCATATCTATAGGTTATGAAATCAAATTACAAATA
DNA 2: TATTTGTAATTTGATTTCATAACCTATAGATATGCCCGGGTACCGAGCTCGAAT
modifications: phosphorothioates, NTS partially modified, TS unmodified
- binding result [2]: binds

B3: SpuFz1 omegaRNA + ds5 (mixed)
RNA: GUUUUCCGAGCCGGUUGUCGCGCGGUUCAAUCCCUGGUGCGGGUGCUAGUGCCAAUACCCACCGGCUCCGCACUAUCUAUAGGUUAUGA
DNA 1: ATTCGAGCTCGGTACCCGGGCATATCTATAGGTTATGAAATCAAATTACAAATA
DNA 2: TATTTGTAATTTGATTTCATAACCTATAGATATGCCCGGGTACCGAGCTCGAAT
modifications: phosphorothioates, TS fully modified, NTS unmodified
- binding result [3]: binds

B4: SpuFz1 omegaRNA + ds6 (mixed)
RNA: GUUUUCCGAGCCGGUUGUCGCGCGGUUCAAUCCCUGGUGCGGGUGCUAGUGCCAAUACCCACCGGCUCCGCACUAUCUAUAGGUUAUGA
DNA 1: ATTCGAGCTCGGTACCCGGGCATATCTATAGGTTATGAAATCAAATTACAAATA
DNA 2: TATTTGTAATTTGATTTCATAACCTATAGATATGCCCGGGTACCGAGCTCGAAT
modifications: phosphorothioates, NTS fully modified, TS unmodified
- binding result [4]: binds
